Test results from the supplement of paper PMC10065799, “High-throughput profiling of sequence recognition by tyrosine kinases and SH2 domains using bacterial peptide display” (eLife, 2023).

Legend:
Grb2 SH2 = Grb2 SH2 (UniProt P62993); assay: SH2 binding enrichment of the phosphorylated peptide, bacterial display (enrichment ratio); higher = better substrate or ligand; peptides without Tyr show the background
SHP2-C SH2 = assay: as above
c-Src SH2 = assay: as above
MERTK = MERTK (UniProt Q12866); assay: phosphorylation enrichment, bacterial display (enrichment ratio); higher = better substrate or ligand; peptides without Tyr show the background
Chain of MERTK (Q12866 whole entry, looked up): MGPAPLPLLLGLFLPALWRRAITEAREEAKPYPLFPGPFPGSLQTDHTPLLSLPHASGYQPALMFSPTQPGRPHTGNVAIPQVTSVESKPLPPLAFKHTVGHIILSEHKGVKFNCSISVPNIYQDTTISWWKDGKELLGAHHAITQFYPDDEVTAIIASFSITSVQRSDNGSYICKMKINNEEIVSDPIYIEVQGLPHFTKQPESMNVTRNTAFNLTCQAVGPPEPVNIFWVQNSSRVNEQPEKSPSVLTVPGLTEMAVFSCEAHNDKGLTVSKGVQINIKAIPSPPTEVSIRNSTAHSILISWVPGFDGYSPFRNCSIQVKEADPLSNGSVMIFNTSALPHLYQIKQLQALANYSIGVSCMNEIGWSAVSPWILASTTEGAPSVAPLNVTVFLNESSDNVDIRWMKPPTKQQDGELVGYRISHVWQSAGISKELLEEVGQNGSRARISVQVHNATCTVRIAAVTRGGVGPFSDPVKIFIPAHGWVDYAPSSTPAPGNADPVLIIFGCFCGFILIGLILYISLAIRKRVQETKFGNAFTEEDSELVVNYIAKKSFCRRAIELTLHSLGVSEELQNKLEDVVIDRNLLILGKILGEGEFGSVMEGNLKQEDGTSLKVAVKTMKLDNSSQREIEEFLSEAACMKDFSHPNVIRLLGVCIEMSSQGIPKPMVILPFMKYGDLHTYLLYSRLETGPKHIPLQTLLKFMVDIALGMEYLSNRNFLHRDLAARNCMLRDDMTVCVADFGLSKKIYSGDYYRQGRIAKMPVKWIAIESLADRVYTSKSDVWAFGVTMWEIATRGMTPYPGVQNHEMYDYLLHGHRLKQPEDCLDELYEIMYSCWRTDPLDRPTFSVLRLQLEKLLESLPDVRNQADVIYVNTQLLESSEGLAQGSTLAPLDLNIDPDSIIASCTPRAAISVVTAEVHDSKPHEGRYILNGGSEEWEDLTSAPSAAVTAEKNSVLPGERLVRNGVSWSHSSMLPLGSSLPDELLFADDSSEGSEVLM

EPHB1 = EPHB1 (UniProt P54762); assay: as above
Chain of EPHB1 (P54762 whole entry, looked up): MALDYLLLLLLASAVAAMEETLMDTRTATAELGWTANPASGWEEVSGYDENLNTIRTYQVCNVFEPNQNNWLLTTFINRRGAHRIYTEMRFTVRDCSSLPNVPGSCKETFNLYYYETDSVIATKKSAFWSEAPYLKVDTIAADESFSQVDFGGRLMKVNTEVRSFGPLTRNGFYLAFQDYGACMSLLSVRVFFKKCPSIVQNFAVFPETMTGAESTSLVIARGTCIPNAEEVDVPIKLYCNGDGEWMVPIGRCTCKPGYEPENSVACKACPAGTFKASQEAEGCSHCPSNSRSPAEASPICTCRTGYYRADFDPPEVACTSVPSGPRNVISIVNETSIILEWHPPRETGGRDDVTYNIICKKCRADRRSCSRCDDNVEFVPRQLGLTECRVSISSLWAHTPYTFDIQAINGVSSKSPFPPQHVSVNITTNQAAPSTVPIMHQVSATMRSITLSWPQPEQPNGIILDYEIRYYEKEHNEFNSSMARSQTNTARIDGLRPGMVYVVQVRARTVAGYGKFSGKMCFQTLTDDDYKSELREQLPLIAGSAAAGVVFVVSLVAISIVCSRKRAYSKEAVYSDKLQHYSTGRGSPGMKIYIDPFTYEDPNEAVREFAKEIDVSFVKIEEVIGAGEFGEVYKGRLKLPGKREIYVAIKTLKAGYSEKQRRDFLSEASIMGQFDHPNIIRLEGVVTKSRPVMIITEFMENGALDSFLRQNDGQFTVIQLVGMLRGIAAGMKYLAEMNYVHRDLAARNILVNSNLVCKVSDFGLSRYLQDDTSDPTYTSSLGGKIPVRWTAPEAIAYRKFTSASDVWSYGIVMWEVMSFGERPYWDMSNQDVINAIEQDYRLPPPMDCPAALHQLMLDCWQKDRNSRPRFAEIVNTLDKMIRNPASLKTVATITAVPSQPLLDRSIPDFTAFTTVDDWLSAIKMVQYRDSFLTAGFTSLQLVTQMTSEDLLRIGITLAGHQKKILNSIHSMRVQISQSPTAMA

c-Src = assay: as above
EPHB2 = EPHB2 (UniProt P29323); assay: as above
Chain of EPHB2 (P29323 whole entry, looked up): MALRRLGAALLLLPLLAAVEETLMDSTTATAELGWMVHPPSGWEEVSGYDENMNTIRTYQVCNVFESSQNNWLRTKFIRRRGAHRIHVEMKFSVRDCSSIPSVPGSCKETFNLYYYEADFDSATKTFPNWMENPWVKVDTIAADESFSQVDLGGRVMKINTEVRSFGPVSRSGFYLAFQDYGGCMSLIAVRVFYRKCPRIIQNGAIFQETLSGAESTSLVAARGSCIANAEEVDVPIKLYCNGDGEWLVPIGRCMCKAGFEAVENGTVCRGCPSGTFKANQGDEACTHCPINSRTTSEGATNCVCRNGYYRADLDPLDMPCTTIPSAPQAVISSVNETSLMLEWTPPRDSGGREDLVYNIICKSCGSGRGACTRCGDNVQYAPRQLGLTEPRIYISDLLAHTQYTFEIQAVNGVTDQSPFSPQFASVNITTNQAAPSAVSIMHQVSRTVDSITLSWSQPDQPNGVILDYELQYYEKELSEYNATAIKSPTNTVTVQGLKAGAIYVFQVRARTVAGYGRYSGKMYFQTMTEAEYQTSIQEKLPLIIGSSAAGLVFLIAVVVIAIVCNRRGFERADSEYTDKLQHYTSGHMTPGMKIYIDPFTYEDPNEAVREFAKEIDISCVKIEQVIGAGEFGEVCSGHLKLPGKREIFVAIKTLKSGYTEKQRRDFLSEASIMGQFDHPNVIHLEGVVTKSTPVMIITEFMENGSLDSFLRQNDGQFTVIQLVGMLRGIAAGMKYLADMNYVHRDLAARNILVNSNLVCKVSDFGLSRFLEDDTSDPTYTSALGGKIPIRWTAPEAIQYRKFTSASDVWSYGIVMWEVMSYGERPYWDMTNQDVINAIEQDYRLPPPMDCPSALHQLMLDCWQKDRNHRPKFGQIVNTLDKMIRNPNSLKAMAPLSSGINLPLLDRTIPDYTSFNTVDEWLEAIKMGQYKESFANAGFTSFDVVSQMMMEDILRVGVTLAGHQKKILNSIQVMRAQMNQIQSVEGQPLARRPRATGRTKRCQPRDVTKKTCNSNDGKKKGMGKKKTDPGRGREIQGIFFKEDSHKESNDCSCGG

c-Abl (mouse) = assay: as above
Hck = Hck (UniProt P08631); assay: as above
Fer (mouse) = assay: as above
Fyn = Fyn (UniProt P06241); assay: as above
Chain of Fyn (P06241 whole entry, looked up): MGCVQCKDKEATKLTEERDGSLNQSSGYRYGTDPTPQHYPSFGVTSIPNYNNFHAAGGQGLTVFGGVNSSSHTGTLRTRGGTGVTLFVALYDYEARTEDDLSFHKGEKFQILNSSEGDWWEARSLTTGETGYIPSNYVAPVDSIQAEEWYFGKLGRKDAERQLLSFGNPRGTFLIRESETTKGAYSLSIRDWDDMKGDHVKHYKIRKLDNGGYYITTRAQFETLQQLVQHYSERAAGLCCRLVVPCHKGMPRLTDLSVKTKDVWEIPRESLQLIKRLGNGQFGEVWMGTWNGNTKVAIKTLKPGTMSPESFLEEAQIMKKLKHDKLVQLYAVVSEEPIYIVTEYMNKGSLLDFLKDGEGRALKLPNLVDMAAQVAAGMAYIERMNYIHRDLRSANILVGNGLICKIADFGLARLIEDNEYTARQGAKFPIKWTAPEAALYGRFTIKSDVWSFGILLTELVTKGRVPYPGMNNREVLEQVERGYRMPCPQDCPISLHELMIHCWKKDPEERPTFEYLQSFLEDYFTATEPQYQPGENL

FGFR3 = FGFR3 (UniProt P22607); assay: as above
Jak2 = Jak2 (UniProt O60674); assay: as above
FGFR1 = FGFR1 (UniProt P11362); assay: as above
Chain of FGFR1 (P11362 whole entry, looked up): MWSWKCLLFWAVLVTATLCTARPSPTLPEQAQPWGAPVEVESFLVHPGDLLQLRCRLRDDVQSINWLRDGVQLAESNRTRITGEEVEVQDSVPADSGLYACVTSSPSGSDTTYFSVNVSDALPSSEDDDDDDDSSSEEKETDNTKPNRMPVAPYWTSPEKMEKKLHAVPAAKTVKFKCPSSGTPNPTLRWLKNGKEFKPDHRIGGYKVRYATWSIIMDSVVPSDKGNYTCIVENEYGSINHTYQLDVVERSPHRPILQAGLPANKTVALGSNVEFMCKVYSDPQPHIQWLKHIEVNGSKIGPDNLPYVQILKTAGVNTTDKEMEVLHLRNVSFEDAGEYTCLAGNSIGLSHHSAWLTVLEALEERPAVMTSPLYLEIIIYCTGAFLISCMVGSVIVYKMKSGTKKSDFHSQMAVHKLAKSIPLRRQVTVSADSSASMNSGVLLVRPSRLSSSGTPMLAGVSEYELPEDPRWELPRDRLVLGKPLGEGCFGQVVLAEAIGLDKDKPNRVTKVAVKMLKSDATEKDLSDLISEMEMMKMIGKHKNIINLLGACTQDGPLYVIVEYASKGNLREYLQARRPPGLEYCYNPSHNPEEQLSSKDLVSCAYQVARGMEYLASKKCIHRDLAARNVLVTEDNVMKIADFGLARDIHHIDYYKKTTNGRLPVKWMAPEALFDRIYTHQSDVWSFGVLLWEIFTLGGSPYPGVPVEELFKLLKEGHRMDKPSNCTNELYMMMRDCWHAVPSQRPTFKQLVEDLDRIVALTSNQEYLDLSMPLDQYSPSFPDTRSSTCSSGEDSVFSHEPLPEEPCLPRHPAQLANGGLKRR

Fes = Fes (UniProt P07332); assay: as above
AncSZ = assay: as above
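Wherever SH2 binding enrichment of the phosphorylated peptide, bacterial display is given: peptide library displayed on the E. coli surface as eCPX fusions, selected cells deep-sequenced, score is each peptide's frequency after selection divided by its frequency in the input.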
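Wherever phosphorylation enrichment, bacterial display is given: 11-residue human phosphosite peptides and single-mutation variants displayed on the E. coli surface, counted by deep sequencing, each peptide's frequency after selection divided by its frequency in the unselected input library; frequency after pTyr selection over input frequency; kinase dosed for 20-30% of maximal phosphorylation in three min.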

Chain of Grb2 SH2 (P62993 whole entry, looked up): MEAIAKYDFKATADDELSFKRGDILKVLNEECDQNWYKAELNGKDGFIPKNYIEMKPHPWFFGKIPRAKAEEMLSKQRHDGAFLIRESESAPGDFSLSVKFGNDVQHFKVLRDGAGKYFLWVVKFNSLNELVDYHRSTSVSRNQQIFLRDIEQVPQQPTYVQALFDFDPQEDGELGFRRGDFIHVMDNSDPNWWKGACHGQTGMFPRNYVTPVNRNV

| Sequence | SH2 binding enrichment (Grb2 SH2) | SH2 binding enrichment (SHP2-C SH2) | SH2 binding enrichment (c-Src SH2) | phosphorylation enrichment (MERTK) | phosphorylation enrichment (EPHB1) | phosphorylation enrichment (c-Src) | phosphorylation enrichment (EPHB2) | phosphorylation enrichment (c-Abl (mouse)) | phosphorylation enrichment (Hck) | phosphorylation enrichment (Fer (mouse)) | phosphorylation enrichment (Fyn) | phosphorylation enrichment (FGFR3) | phosphorylation enrichment (Jak2) | phosphorylation enrichment (FGFR1) | phosphorylation enrichment (Fes) | phosphorylation enrichment (AncSZ) |
| --- | --- | --- | --- | --- | --- | --- | --- | --- | --- | --- | --- | --- | --- | --- | --- | --- |
| SLVGCYNLTFM [HS6ST3_Y323] | 0.599 | 0.553 | 0.432 | 0.498 | 0.694 | 0.794 | 0.868 | 1.12 | 0.745 | 1.29 | 0.694 | 0.95 | 1.39 | 0.589 | 1.56 | 1.42 |
| SMGHRYIEVFR [HNRNPF_Y82_K87R] | 0.936 | 1.33 | 3.04 | 0.474 | 0.451 | 0.367 | 0.576 | 0.514 | 0.453 | 0.483 | 0.335 | 0.506 | 0.688 | 0.53 | 0.691 | 0.622 |
| SNKELYEKYMI | 0.705 | 0.506 | 0.655 | 0.597 | 0.652 | 0.96 | 0.62 | 0.487 | 0.871 | 7.5 | 0.593 | 0.579 | 0.616 | 0.482 | 0.802 | 0.896 |
| SPYMLYQYLKQ [RPAP3_Y567_D564Y] | 1.52 | 3.05 | 1.11 | 9.38 | 14.1 | 5.57 | 11.4 | 3.63 | 7.66 | 10.6 | 4.34 | 4.11 | 2.23 | 5.62 | 1.24 | 1.39 |
| SQQTFYPVSNM [ABCD1_Y181_R182P_YF] | 0.881 | 0.644 | 0.466 | 0.374 | 0.387 | 0.398 | 0.49 | 0.57 | 0.407 | 0.318 | 0.419 | 0.513 | 0.598 | 0.507 | 0.654 | 0.706 |
| SREDIYKRNTE [PDE4DIP_Y45_I49T] | 0.685 | 0.691 | 0.344 | 0.374 | 0.62 | 0.451 | 0.416 | 0.898 | 0.429 | 0.463 | 0.409 | 0.696 | 0.81 | 0.411 | 1.05 | 0.8 |
| SRGHQYQELPR [KCNH2_Y1009_R1007H] | 1.04 | 0.807 | 5.11 | 0.576 | 0.466 | 0.35 | 0.602 | 0.589 | 1.06 | 0.413 | 0.487 | 0.464 | 0.721 | 0.609 | 0.672 | 0.527 |
| SRNSKYNAEST [PSEN1_Y315_K311R] | 0.774 | 0.522 | 0.386 | 0.464 | 0.328 | 0.378 | 0.46 | 0.497 | 0.323 | 0.347 | 0.366 | 0.376 | 0.489 | 0.378 | 0.441 | 0.512 |
| SSFSRYIMMPN [LEF1_Y114_G113R_YF] | 0.73 | 0.728 | 0.946 | 0.588 | 0.471 | 0.485 | 0.556 | 0.626 | 0.559 | 0.484 | 0.509 | 0.617 | 0.812 | 0.599 | 0.806 | 0.738 |
| SSPRRYTIAAL [TTR_Y125_G121S] | 0.787 | 0.789 | 0.477 | 0.34 | 0.303 | 0.312 | 0.374 | 0.4 | 0.378 | 0.382 | 0.412 | 0.402 | 0.356 | 0.383 | 0.567 | 0.437 |
| SSSGAYGGGFG [KRT19_Y61_YF] | 0.724 | 0.517 | 0.427 | 0.396 | 0.383 | 0.452 | 0.378 | 0.539 | 0.415 | 0.396 | 0.434 | 0.464 | 0.595 | 0.412 | 0.689 | 0.553 |
| SSSNPYSTVTM [ACTN2_Y599] | 0.766 | 7.62 | 3.42 | 0.521 | 0.461 | 1.9 | 0.389 | 0.768 | 0.995 | 10.9 | 0.976 | 0.486 | 0.599 | 0.543 | 0.751 | 0.62 |
| STDDGCIDLQF [TMEM230_Y29_Y29C] | 0.939 | 0.815 | 0.76 | 0.646 | 0.492 | 0.503 | 0.636 | 0.668 | 0.665 | 0.55 | 0.56 | 0.797 | 0.979 | 0.613 | 1.13 | 1.14 |
| STEEQYRICQV [EFHC1_Y115_R118C] | 0.695 | 0.52 | 0.367 | 0.492 | 0.71 | 0.566 | 0.629 | 0.999 | 0.52 | 0.598 | 0.541 | 0.848 | 1.08 | 0.599 | 1.53 | 1.09 |
